One protein from doi:10.1101/600692v2 can be followed below.

Substrate in series [1]: O=C(O)c1ccc(O)cc1
The series can be described thus: purified protein. The settings on record: with glutamate and ATP.

Substrate in series [2]: C=C(O[C@H]1C=CC=C(C(=O)O)[C@@H]1O)C(=O)O
The experiment in a line: purified protein. The settings on record: with glutamate and ATP; isochorismate made from chorismate by ICS1.

B1: PBS3 (AvrPphB SUSCEPTIBLE3) (Arabidopsis thaliana) (protein)
chain: MKPIFDINETFEKQLKDLTSNVKSIQDNLLEEIITPNTKTEYLQRFLIDRFDKELFKKNVPIVSYEDIKPYLDRVVNGESSDVISARTITGFLLSSGTSGGAQKMMPWNNKYLDNLTFIYDLRMQVITKHVKGVEEGKGMMFLFTKQESMTPSGLPARVATSSYFKSDYFKNRPSNWYYSYTSPDEVILCPNNTESLYCHLLCGLVQRDEVVRTGSIFASVMVRAIEVLKNSWEELCSNIRSGHLSNWVTDLGCQNSVSLVLGGPRPELADTIEEICNQNSWKGIVKRLWPNTKYIETVVTGSMGQYVPMLNYYCNDLPLVSTTYGSSETTFGINLDPLCKPEDVSYTFMPNMSYFEFIPMDGGDKNDVVDLEDVKLGCTYEPVVTNFAGLYRMRVGDIVLVTGFYNNAPQFKFVRRENVVLSIDSDKTNEEDLFKAVSQAKLVLESSGLDLKDFTSYADTSTFPGHYVVYLEVDTKEGEEKETAQFELDEEALSTCCLVMEESLDNVYKRCRFKDGSIGPLEIRVVRQGTFDSLMDFFISQGASTGQYKTPRCIKSGKALQVLETCVVAKFFSI
As a reminder, the Km is the concentration of substrate that gives half-maximal velocity. For B1, in the series “purified protein [1]”, the Km worked out at 311.54 µM and the kcat is 13.46 min^-1 (printed as V/Et). In addition, in “purified protein [2]”, the Km is on record as 14.90 µM and the kcat is reported as 472.29 min^-1 (printed as V/Et).
